Target: the molecule itself
Assay: native MS

Protein	stoichiometry N
NAD(P)H-hydrate epimerase (enzyme) ASTVVKYLSQEEAQAVDQELFNEYQFSVDQLMELAGLSCATAIAKAYPPTSMSRSPPTVLVICGPGNNGGDGLVCARHLKLFGYEPTIYYPKRPNKPLFTALVTQCQKMDIPFLGEMPAEPMTIDELYELVVDAIFGFSFKGDVREPFHSILSVLKGLTVPIASIDIPSGWDVEKGNAGGIQPDLLISLTAPKKSATQFTGRYHYLGGRFVPPALEKKYQLNLPPYPDTECVYRLQ	2
murine cytosolic aspartate aminotransferase (enzyme) MAPPSVFAQVPQAPPVLVFKLTADFRDDPDPRKVNLGVGAYRTDESQPWVLPVVRKVEQKIANDNSLNHEYLPILGLAEFRSCASRLVLGDNSLAIRENRVGGVQSLGGTGALRIGADFLGRWYNGTDNKNTPIYVSSPTWENHNAVFSAAGFKDIRPYCYWDAEKRGLDLQGFLNDLENAPEFSIFVLHACAHNPTGTDPTPEQWKQIAAVMQRRFLFPFFDSAYQGFASGDLEKDAWAIRYFVSEGFELFCAQSFSKNFGLYNERVGNLTVVGKESDSVLRVLSQMEKIVRITWSNPPAQGARIVAATLSDPELFKEWKGNVKTMADRILTMRSELRARLEALKTPGTWSHITEQIGMFSFTGLNPKQVEYLVNEKHIYLLPSGRINMCGLTTKNLDYVATSIHEAVTKIQ	2
creatine kinase M from mouse heart (enzyme) not shown	2
mitochondrial malate dehydrogenase (enzyme) AKVAVLGASGGIGQPLSLLLKNSPLVSRLTLYDIAHTPGVAADLSHIETKAAVKGYLGPEQLPDCLKGCDVVVIPAGVPRKPGMTRDDLFNTNATIVATLTAACAQHCPEAMICVIANPVNSTIPITAEVFKKHGVYNPNKIFGVTTLDIVRANTFVAELKGLDPARVNVPVIGGHAGKTIIPLISQCTPKVDFPQDQLTALTGRIQEAGTEVVKAKAGAGSATLSMAYAGARFVFSLVDAMNGKEGVVECSFVKSQETECTYFSTPLLLGKKGIEKNLGIGKVSSFEEKMISDAIPELKASIKKGEDFVKTLK	2
human mitochondrial superoxide dismutase (enzyme) KHSLPDLPYDYGALEPHINAQIMQLHHSKHHAAYVNNLNVTEEKYQEALAKGDVTAQIALQPALKFNGGGHINHSIFWTNLSPNGGGEPKGELLEAIKRDFGSFDKFKEKLTAASVGVQGSGWGWLGFNKERGHLQIAACPNQDPLQGTTGLIPLLGIDVWEHAYYLQYKNVRPDYLKAIWNVINWENVTERYMACKK	4
3-hydroxyisobutyrate dehydrogenase (enzyme) ASKTPVGFIGLGNMGNPMAKNLMKHGYPLILYDVFPDVCKEFKEAGEQVASSPAEVAEKADRIITMLPSSMNAVEVYSGANGILKKVKKGSLLIDSSTIDPSVSKELAKEVEKMGAVFMDAPVSGGVGAARSGNLTFMVGGVEDEFAAAQELLECMGSNVVYCGAVGTGQSAKICNNMLLAISMIGTAEAMNLGIRSGLDPKLLAKILNMSSGRCWSSDTYNPVPGVMHGVPSSNNYQGGFGTTLMAKDLGLAQDSATSTKTPILLGSLAHQIYRMMCSKGYSKKDFSSVFQYLREEEPF	4
